Data set [1] addresses T1, SSB (UniProt P0AGE0 2-178). The data set can be described thus: competition (smFRET strand transfer); from dT70-SSB, 300 mM NaCl; 6.1±0.1e4 M-1 s-1; 10 mM Tris-HCl pH 7.5, 100 or 300 mM NaCl, 10% glycerol, 10 mM Trolox, 0.5% glucose, glucose oxidase/catalase, ~23 C. Particulars: protein: recombinant; chain copies: 4.
For data set [2], the target named is T2, RPA (yeast) (Saccharomyces cerevisiae, UniProt P22336;P26754;P26755 1-621;1-273;1-122). The data set can be described thus: competition (smFRET strand transfer); from dT70-RPA, 100 mM NaCl; 9.1±0.4e4 M-1 s-1; 10 mM Tris-HCl pH 7.5, 100 or 300 mM NaCl, 10% glycerol, 10 mM Trolox, 0.5% glucose, glucose oxidase/catalase, ~23 C. Particulars: protein: recombinant; copies: 1;1;1.
T2 sequence (P22336 whole entry, chain 1 of 3): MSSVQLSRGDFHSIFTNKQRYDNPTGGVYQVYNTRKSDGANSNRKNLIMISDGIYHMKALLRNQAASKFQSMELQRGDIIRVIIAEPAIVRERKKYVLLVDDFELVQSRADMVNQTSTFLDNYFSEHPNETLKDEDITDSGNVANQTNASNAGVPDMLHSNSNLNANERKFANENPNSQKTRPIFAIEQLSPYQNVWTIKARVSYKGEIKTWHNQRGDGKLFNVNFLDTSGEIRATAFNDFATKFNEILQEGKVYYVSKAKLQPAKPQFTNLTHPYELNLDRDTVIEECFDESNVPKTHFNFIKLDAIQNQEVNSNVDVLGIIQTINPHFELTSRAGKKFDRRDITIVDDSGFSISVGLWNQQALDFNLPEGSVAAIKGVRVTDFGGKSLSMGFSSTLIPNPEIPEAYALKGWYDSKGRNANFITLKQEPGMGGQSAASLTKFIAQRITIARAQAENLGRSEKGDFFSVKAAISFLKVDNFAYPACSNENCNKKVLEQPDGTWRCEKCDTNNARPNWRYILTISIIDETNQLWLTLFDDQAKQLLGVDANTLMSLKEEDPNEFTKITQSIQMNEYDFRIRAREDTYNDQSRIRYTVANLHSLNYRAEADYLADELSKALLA
T2 sequence (P26754 whole entry, chain 2 of 3): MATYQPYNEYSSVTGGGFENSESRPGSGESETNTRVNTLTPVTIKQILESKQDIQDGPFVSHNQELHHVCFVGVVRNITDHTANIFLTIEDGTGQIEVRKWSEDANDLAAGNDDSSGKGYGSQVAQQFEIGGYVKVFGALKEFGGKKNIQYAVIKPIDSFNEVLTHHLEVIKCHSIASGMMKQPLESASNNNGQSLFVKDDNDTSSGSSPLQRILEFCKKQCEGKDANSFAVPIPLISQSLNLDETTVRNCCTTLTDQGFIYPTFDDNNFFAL
T2 sequence (P26755 whole entry, chain 3 of 3): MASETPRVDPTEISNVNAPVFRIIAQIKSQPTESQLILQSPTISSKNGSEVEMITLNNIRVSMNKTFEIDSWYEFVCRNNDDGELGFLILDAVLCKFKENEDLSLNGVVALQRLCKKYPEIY

For data set [3], the target named is T2, RPA (yeast). The data set can be described thus: competition (smFRET strand transfer); from dT40-RPA, 100 mM NaCl; 8.6±0.3e4 M-1 s-1; 10 mM Tris-HCl pH 7.5, 100 or 300 mM NaCl, 10% glycerol, 10 mM Trolox, 0.5% glucose, glucose oxidase/catalase, ~23 C. Particulars: protein: recombinant; copies: 1;1;1.
The target in the next data set is hRPA (Homo sapiens, UniProt P27694;P15927;P35244 1-616;1-270;1-121). The data set can be described thus: competition (smFRET strand transfer); from dT40-hRPA, 100 mM NaCl; 8.3±0.6e4 M-1 s-1; 10 mM Tris-HCl pH 7.5, 100 or 300 mM NaCl, 10% glycerol, 10 mM Trolox, 0.5% glucose, glucose oxidase/catalase, ~23 C. Particulars: protein: recombinant; copies: 1;1;1.
Chain of hRPA (P27694 whole entry, chain 1 of 3): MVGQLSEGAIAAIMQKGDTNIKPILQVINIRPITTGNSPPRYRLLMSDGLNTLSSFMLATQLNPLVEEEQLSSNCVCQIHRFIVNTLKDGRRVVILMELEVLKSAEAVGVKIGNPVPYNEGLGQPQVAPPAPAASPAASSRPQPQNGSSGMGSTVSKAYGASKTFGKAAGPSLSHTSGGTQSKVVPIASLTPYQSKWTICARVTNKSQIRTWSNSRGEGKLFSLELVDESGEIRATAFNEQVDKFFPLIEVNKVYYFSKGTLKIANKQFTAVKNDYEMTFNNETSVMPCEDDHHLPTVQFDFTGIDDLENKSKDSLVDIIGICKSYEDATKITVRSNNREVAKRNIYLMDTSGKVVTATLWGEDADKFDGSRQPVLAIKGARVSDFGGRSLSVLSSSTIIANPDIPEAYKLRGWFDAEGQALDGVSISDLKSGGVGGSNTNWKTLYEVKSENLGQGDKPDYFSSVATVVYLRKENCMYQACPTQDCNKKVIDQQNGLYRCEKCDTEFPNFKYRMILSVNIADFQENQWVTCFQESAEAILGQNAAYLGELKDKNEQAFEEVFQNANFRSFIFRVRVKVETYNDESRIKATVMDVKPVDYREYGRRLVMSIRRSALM
Chain of hRPA (P15927 whole entry, chain 2 of 3): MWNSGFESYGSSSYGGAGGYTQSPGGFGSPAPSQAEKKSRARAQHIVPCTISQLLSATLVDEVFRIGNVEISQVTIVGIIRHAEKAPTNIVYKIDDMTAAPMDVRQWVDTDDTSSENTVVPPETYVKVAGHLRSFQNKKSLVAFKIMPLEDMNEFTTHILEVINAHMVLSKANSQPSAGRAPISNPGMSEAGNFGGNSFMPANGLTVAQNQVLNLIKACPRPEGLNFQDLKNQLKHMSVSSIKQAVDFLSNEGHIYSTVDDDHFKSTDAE
Chain of hRPA (P35244 whole entry, chain 3 of 3): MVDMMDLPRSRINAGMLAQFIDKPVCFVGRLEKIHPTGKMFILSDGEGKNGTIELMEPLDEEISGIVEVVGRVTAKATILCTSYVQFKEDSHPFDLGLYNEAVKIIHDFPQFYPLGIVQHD
Data set [4] addresses T1, SSB. The experiment in a line: competition (smFRET strand transfer); from dT40-SSB, 100 mM NaCl; 9.8±0.2e4 M-1 s-1; 10 mM Tris-HCl pH 7.5, 100 or 300 mM NaCl, 10% glycerol, 10 mM Trolox, 0.5% glucose, glucose oxidase/catalase, ~23 C. Particulars: protein: recombinant; chain copies: 4.
Data set [5] concerns the target T1, SSB. The experiment in a line: single-molecule FRET; 3 nM, ternary intermediate with dT40-SSB, dwell ~0.31 s, 100 mM NaCl; 10 mM Tris-HCl pH 7.5, 100 or 300 mM NaCl, 10% glycerol, 10 mM Trolox, 0.5% glucose, glucose oxidase/catalase, ~23 C. Particulars: protein: recombinant; chain copies: 4; label: 3' Cy3.
Data set [6] has as its target T2, RPA (yeast). The experiment in a line: single-molecule FRET; 3 nM, ternary intermediate with dT40-RPA, dwell ~0.27 s, 100 mM NaCl; 10 mM Tris-HCl pH 7.5, 100 or 300 mM NaCl, 10% glycerol, 10 mM Trolox, 0.5% glucose, glucose oxidase/catalase, ~23 C. The conditions noted are these: protein: recombinant; copies: 1;1;1; label: 3' Cy3.
The target in data set [7] is T2, RPA (yeast). The experiment in a line: competition (smFRET strand transfer); from U50-RPA, 100 mM NaCl; 4.3±0.4e5 M-1 s-1; 10 mM Tris-HCl pH 7.5, 100 or 300 mM NaCl, 10% glycerol, 10 mM Trolox, 0.5% glucose, glucose oxidase/catalase, ~23 C. The conditions noted are these: protein: recombinant; copies: 1;1;1.
Data set [8] concerns the target T1, SSB. The data set can be described thus: competition (smFRET strand transfer); from U50-SSB, 100 mM NaCl; 2.1±0.2e5 M-1 s-1; 10 mM Tris-HCl pH 7.5, 100 or 300 mM NaCl, 10% glycerol, 10 mM Trolox, 0.5% glucose, glucose oxidase/catalase, ~23 C. The conditions noted are these: protein: recombinant; chain copies: 4.
The target of data set [9] is T2, RPA (yeast). The data set can be described thus: competition (smFRET strand transfer); 100 nM competitor from dT40-RPA; rate jumps between dT20 and dT30; 10 mM Tris-HCl pH 7.5, 100 or 300 mM NaCl, 10% glycerol, 10 mM Trolox, 0.5% glucose, glucose oxidase/catalase, ~23 C. Particulars: protein: recombinant; copies: 1;1;1.

The values that follow come from PMC12214019, “Mechanistic insights into direct DNA and RNA strand transfer and dynamic protein exchange of SSB and RPA”.

T1 sequence (P0AGE0 2-178): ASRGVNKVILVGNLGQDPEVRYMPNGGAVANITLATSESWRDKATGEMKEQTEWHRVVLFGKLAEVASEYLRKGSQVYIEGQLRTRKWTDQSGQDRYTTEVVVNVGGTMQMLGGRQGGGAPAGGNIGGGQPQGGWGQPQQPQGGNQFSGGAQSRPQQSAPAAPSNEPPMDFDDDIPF

B1: dT60 (ssDNA)
DNA: TTTTTTTTTTTTTTTTTTTTTTTTTTTTTTTTTTTTTTTTTTTTTTTTTTTTTTTTTTTT
On to B1, for which the binding result in the data set with SSB [1] and in the data set with RPA (yeast) [2] was “binds” throughout.

In the case of TTTTTTTTTTTTTTTTTTTTTTTTTTTTTTTTTTTTTTTT (ssDNA) [dT40], the binding result in the data set with RPA (yeast) [3], in the data set with hRPA and with SSB [4] was “binds” in each case.

As to TTTTTTTTTTTTTTTTTTTTTTTTTTTTTTTTTTTTTTTT (ssDNA) [dT40-Cy3], the binding result in the data set with SSB [5] and in the data set with RPA (yeast) [6] was “binds” in each case.

UUUUUUUUUUUUUUUUUUUUUUUUUUUUUUUUUUUUUUUUUUUUUUUUUU (ssRNA) [U50]: the binding result with RPA (yeast) [7] and with SSB [8] was “binds” throughout.

Take TTTTTTTTTTTTTTTTTTTTTTTTTTTTTT (ssDNA) [dT30]: the binding result in the data set with RPA (yeast) [9] was “binds”.
